In the Human Domainome abundance scans (Beltran et al. 2025) one finds abundance fitness data, which are given here for 36 variants.

B1: Glucocorticoid receptor, residues 419 to 494; numbered along this chain, P04150 (parent)
chain: KLCLVCSDEASGCHYGVLTCGSCKVFFKRAVEGQHNYLCAGRNDCIIDKIRRKNCPACRYRKCLQAGMNLEARKTK

± gives the uncertainty stated by the source.

In this series the parent is B1. The series is described as follows: abundance fitness (aPCA) (normalised: wild type 0, dead -1); higher = more abundant; growth selection in yeast, the domain comes from the species named. Conditions: Homo sapiens.
KLCLVCSDEASGCHYGVLTCGSCKVFFKRAVEGQHNYLCAGRFDCIIDKIRRKNCPACRYRKCLQAGMNLEARKTK [N43F]: the abundance fitness was -0.02 ± 0.06.

Turning to KLCLVCSDEASGCHYGVLTCGSCKVFFKRAVEGQHNYLCAGRVDCIIDKIRRKNCPACRYRKCLQAGMNLEARKTK [N43V], the abundance fitness was -0.285 ± 0.044.

KLCLVCSDEASGCHYGVLTCGSCKVFFKRAVEGQHNYLCAGRRDCIIDKIRRKNCPACRYRKCLQAGMNLEARKTK [N43R]: the abundance fitness was -0.052 ± 0.03.

For the variant KLCLVCSDEASGCHYGVLTCGSCKVFFKRAVEGQHNYLCAGRKDCIIDKIRRKNCPACRYRKCLQAGMNLEARKTK [N43K], the abundance fitness came to 0.013 ± 0.041.

Consider KLCLVCSDEASGCHYGVLTCGSCKVFFKRAVEGQHNYLCAGRLDCIIDKIRRKNCPACRYRKCLQAGMNLEARKTK [N43L], for which the abundance fitness is -0.123 ± 0.033.

As to KLCLVCSDEASGCHYGVLTCGSCKVFFKRAVEGQHNYLCAGREDCIIDKIRRKNCPACRYRKCLQAGMNLEARKTK [N43E], the abundance fitness worked out at 0.011 ± 0.044.

With KLCLVCSDEASGCHYGVLTCGSCKVFFKRAVEGQHNYLCAGRSDCIIDKIRRKNCPACRYRKCLQAGMNLEARKTK [N43S], the abundance fitness is -0.044 ± 0.036.

KLCLVCSDEASGCHYGVLTCGSCKVFFKRAVEGQHNYLCAGRADCIIDKIRRKNCPACRYRKCLQAGMNLEARKTK [N43A]: the abundance fitness is -0.027 ± 0.034.

Consider KLCLVCSDEASGCHYGVLTCGSCKVFFKRAVEGQHNYLCAGRWDCIIDKIRRKNCPACRYRKCLQAGMNLEARKTK [N43W], for which the abundance fitness was -0.056 ± 0.039.

In the case of KLCLVCSDEASGCHYGVLTCGSCKVFFKRAVEGQHNYLCAGRIDCIIDKIRRKNCPACRYRKCLQAGMNLEARKTK [N43I], the abundance fitness was -0.233 ± 0.19.

For the variant KLCLVCSDEASGCHYGVLTCGSCKVFFKRAVEGQHNYLCAGRGDCIIDKIRRKNCPACRYRKCLQAGMNLEARKTK [N43G], the abundance fitness is -0.024 ± 0.03.

On to KLCLVCSDEASGCHYGVLTCGSCKVFFKRAVEGQHNYLCAGRTDCIIDKIRRKNCPACRYRKCLQAGMNLEARKTK [N43T], for which the abundance fitness is -0.134 ± 0.046.

Regarding KLCLVCSDEASGCHYGVLTCGSCKVFFKRAVEGQHNYLCAGRCDCIIDKIRRKNCPACRYRKCLQAGMNLEARKTK [N43C], the abundance fitness is -0.193 ± 0.059.

For KLCLVCSDEASGCHYGVLTCGSCKVFFKRAVEGQHNYLCAGRQDCIIDKIRRKNCPACRYRKCLQAGMNLEARKTK [N43Q], the abundance fitness came out at 0.028 ± 0.05.

For the variant KLCLVCSDEASGCHYGVLTCGSCKVFFKRAVEGQHNYLCAGENDCIIDKIRRKNCPACRYRKCLQAGMNLEARKTK [R42E], the abundance fitness was found to be 0.011 ± 0.04.

Turning to KLCLVCSDEASGCHYGVLTCGSCKVFFKRAVEGQHNYLCAGCNDCIIDKIRRKNCPACRYRKCLQAGMNLEARKTK [R42C], the abundance fitness was -0.064 ± 0.045.

KLCLVCSDEASGCHYGVLTCGSCKVFFKRAVEGQHNYLCAGLNDCIIDKIRRKNCPACRYRKCLQAGMNLEARKTK [R42L]: the abundance fitness was determined as 0.012 ± 0.034.

As to KLCLVCSDEASGCHYGVLTCGSCKVFFKRAVEGQHNYLCAGMNDCIIDKIRRKNCPACRYRKCLQAGMNLEARKTK [R42M], the abundance fitness is -0.024 ± 0.049.

Consider KLCLVCSDEASGCHYGVLTCGSCKVFFKRAVEGQHNYLCAGTNDCIIDKIRRKNCPACRYRKCLQAGMNLEARKTK [R42T], for which the abundance fitness came to 0.036 ± 0.043.

Turning to KLCLVCSDEASGCHYGVLTCGSCKVFFKRAVEGQHNYLCAGWNDCIIDKIRRKNCPACRYRKCLQAGMNLEARKTK [R42W], the abundance fitness was -0.077 ± 0.039.

For KLCLVCSDEASGCHYGVLTCGSCKVFFKRAVEGQHNYLCAGFNDCIIDKIRRKNCPACRYRKCLQAGMNLEARKTK [R42F], the abundance fitness is 0.077 ± 0.098.

For KLCLVCSDEASGCHYGVLTCGSCKVFFKRAVEGQHNYLCAGKNDCIIDKIRRKNCPACRYRKCLQAGMNLEARKTK [R42K], the abundance fitness was 0.106 ± 0.053.

KLCLVCSDEASGCHYGVLTCGSCKVFFKRAVEGQHNYLCAGVNDCIIDKIRRKNCPACRYRKCLQAGMNLEARKTK [R42V]: the abundance fitness turned out to be 0.033 ± 0.036.

In the case of KLCLVCSDEASGCHYGVLTCGSCKVFFKRAVEGQHNYLCAGQNDCIIDKIRRKNCPACRYRKCLQAGMNLEARKTK [R42Q], the abundance fitness is 0.127 ± 0.049.

As for KLCLVCSDEASGCHYGVLTCGSCKVFFKRAVEGQHNYLCAGGNDCIIDKIRRKNCPACRYRKCLQAGMNLEARKTK [R42G], the abundance fitness turned out to be 0.009 ± 0.027.

As for KLCLVCSDEASGCHYGVLTCGSCKVFFKRAVEGQHNYLCAGDNDCIIDKIRRKNCPACRYRKCLQAGMNLEARKTK [R42D], the abundance fitness was determined as 0.06 ± 0.059.

As to KLCLVCSDEASGCHYGVLTCGSCKVFFKRAVEGQHNYLCAGNNDCIIDKIRRKNCPACRYRKCLQAGMNLEARKTK [R42N], the abundance fitness was determined as 0.093 ± 0.071.

Regarding KLCLVCSDEASGCHYGVLTCGSCKVFFKRAVEGQHNYLCAGANDCIIDKIRRKNCPACRYRKCLQAGMNLEARKTK [R42A], the abundance fitness came out at 0.01 ± 0.035.

Turning to KLCLVCSDEASGCHYGVLTCGSCKVFFKRAVEGQHNYLCAGINDCIIDKIRRKNCPACRYRKCLQAGMNLEARKTK [R42I], the abundance fitness is -0.062 ± 0.089.

Turning to KLCLVCSDEASGCHYGVLTCGSCKVFFKRAVEGQHNYLCAGSNDCIIDKIRRKNCPACRYRKCLQAGMNLEARKTK [R42S], the abundance fitness was 0.001 ± 0.035.

In the case of KLCLVCSDEASGCHYGVLTCGSCKVFFKRAVEGQHNYLCAGYNDCIIDKIRRKNCPACRYRKCLQAGMNLEARKTK [R42Y], the abundance fitness was -0.065 ± 0.17.

Consider KLCLVCSDEASGCHYGVLTCGSCKVFFKRAVEGQHNYLCAGHNDCIIDKIRRKNCPACRYRKCLQAGMNLEARKTK [R42H], for which the abundance fitness was -0.011 ± 0.074.

With KLCLVCSDEASGCHYGVLTCGSCKVFFKRAVEGQHNYLCAGRNCCIIDKIRRKNCPACRYRKCLQAGMNLEARKTK [D44C], the abundance fitness was 0.009 ± 0.089.

As to KLCLVCSDEASGCHYGVLTCGSCKVFFKRAVEGQHNYLCAGRNACIIDKIRRKNCPACRYRKCLQAGMNLEARKTK [D44A], the abundance fitness was -0.014 ± 0.035.

As for KLCLVCSDEASGCHYGVLTCGSCKVFFKRAVEGQHNYLYAGRNDCIIDKIRRKNCPACRYRKCLQAGMNLEARKTK [C39Y], the abundance fitness is -0.951 ± 0.34.

For KLCLVCSDEASGCHYGVLTCGSCKVFFKRAVEGQHNYLWAGRNDCIIDKIRRKNCPACRYRKCLQAGMNLEARKTK [C39W], the abundance fitness was -0.992 ± 0.12.
